Measured values published in publication PMC3601965, “Conformational Change-Induced Repeat Domain Expansion Regulates Rap Phosphatase Quorum-Sensing Signal Receptors” (PLoS Biology, 2013).

Key:
[1] = target: T1, RapJ (B. subtilis strain 168, UniProt O34327 1-373); assay: SEC + other: MALDI-TOF and MALDI-TOF/TOF mass spectrometry; 8.5 mM PhrC mixed with 425 µM RapJ (wild type or R105A,Y161F), Superdex 200 16/70 in 20 mM Tris-HCl pH 8.0, 50 mM KCl, 5 mM MgCl2, 5 mM DTT; peak fractions analysed for PhrC (m/z 593.27); PhrC alone as control; details: both partners purified
T1 construct: RapJ, Bacillus subtilis strain 168, amplified from genomic DNA; no heterologous residues after removal of His-Sumo; Phases came from selenomethionyl RapJ crystals; In the functional rows the in vivo RapJ was expressed in B. subtilis VP068 from pDRJ1 (IS75 DNA); also called response regulator aspartate phosphatase J; wild-type RapJ; source: E. coli BL21(DE3), purified (His-60 Ni resin, SUMO …)
T1 sequence (looked up): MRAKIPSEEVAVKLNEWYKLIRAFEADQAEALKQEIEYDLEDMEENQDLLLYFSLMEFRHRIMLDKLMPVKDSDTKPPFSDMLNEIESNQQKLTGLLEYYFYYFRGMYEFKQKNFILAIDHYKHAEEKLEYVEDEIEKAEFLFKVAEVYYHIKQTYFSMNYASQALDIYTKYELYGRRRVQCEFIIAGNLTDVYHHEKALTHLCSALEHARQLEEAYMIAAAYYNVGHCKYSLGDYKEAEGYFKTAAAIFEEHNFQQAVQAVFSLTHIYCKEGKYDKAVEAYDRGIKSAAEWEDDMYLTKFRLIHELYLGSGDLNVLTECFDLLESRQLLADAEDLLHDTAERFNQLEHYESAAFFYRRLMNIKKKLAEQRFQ

[2] = target: T2, RapJ-R105A,Y161F (B. subtilis, UniProt O34327 1-373, R105A | Y161F); assay: as above; details: both partners purified
T2 construct: RapJ, Bacillus subtilis, double mutant R105A,Y161F; same construct limits as wild-type RapJ; source: overexpressed and purified as for X-ray crystallography (E. coli; after the SourceQ step dialysed against buffer H); not shown: His, N-terminal, cleaved; SUMO, N-terminal, cleaved
T2 sequence (looked up): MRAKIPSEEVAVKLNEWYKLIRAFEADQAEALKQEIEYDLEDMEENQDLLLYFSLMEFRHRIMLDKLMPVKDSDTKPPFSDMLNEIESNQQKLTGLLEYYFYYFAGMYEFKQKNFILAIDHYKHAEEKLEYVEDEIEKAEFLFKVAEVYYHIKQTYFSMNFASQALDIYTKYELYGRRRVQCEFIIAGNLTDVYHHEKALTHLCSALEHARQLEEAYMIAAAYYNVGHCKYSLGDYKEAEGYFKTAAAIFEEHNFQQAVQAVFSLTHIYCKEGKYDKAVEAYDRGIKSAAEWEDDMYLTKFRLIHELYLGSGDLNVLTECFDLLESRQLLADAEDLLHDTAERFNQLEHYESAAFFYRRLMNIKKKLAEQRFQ

binding result [1]: binds
binding result [2]: binds
B1: PhrC (peptide)
peptide: ERGMT
notes: mature PhrC pentapeptide (NH2-ERGMT-COOH), cut from the C-terminus of pro-PhrC, Bacillus subtilis; also called CSF; source: synthetic peptide, bought: LifeTein, 95% purity
